Assay results: patent publication CN111333730A (NANJING RONGJIEKANG BIOTECHNOLOGY CO LTD, dated 2020)

Target: T1, 人源EpCAM重组胞外结构域蛋白 (human, UniProt P16422 24-265)
T1 construct: range 24-265; Made in-house in 293F cells from pcDNA3.4; coated on ELISA plates; also called EpCAM重组蛋白; 人源重组EpCAM
T1 sequence: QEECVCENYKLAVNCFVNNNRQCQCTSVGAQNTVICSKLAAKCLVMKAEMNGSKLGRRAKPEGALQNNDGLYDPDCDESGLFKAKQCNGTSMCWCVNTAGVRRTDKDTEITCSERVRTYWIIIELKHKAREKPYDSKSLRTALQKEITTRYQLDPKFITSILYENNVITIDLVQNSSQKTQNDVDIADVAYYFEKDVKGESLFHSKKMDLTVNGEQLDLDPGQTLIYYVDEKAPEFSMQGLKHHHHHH
Experiment: ELISA, coated human recombinant EpCAM, anti-HA-HRP detection

EC50: 1.96 nM
B1: 单域抗体 4C9 (VHH)
VHH: ESGGGSVQAGGSLRLSCAASEYTWSTTCMGWFRQAPGKEREGVAALYTRRGSTYYADSVKGRFTISRDNAENTVYLQMNSLKPEDTAMYYCASGPSTDFSCDYRRSNGYNYWGQGTQVTVSS
